The values that follow come from patent US20240343823A1 (Ablynx, published 2024).

Assay [1] has as its target T1, cyno GPC3 expressed on CHO Flp-In cells (cynomolgus).
T1 construct: range 3-559; On cells; also called cyGPC3 CHO; CHO-cGPC3
Nature of the assay: flow cytometry on cells expressing GPC3; lower end tied by Table 21 to CHO cyno GPC3.

The target in assay [2] is T2, recombinant human Glypican-3 (R&D Systems, cat nr. 2119-GP) (human, UniProt P51654 25-559).
T2 construct: Bought protein; also called human GPC3; hGPC3
Nature of the assay: SPR ProteOn XPR36, GPC3 captured on anti-His antibody, 1:1 model. The procedure:
(§1) Recombinant GPC3 proteins were captured on a GLC Sensor Chip (Biorad) immobilized with THE anti-His antibody (Genscript, cat no ABIN387699) via amine coupling, using EDC and NHS chemistry (running buffer: HBS-EP+, pH7.4). Purified ISVDs were injected for 2 minutes (flow rate 45 μL/min) at different concentrations (between 0.3 nM and 1000 nM) and dissociation was followed for 900 s. Regeneration was performed by injecting 10 mM Glycine-HCl (pH 1.5) for 1 minute (flow rate 45 μL/min). Data was double referenced by subtracting a reference ligand lane and a blank buffer injection. Processed sensorgrams were analyzed based on the 1:1 interaction model (Langmuir binding model) using ProteOn Manager 3.1.0 (Version 3.1.0.6) software.

The target of assay [3] is T3, cyno Glypican-3 delta-GPI-HIS, in-house produced (cynomolgus).
T3 construct: range 3-559; also called cyno GPC3; cyGPC3
The description is as above. On the procedure: as §1

Assay [4] deals with T4, human GPC2 (R&D systems, cat no 2304-GP) (human, UniProt Q8N158 24-554, limits assumed).
T4 construct: Bought
T4 sequence (looked up): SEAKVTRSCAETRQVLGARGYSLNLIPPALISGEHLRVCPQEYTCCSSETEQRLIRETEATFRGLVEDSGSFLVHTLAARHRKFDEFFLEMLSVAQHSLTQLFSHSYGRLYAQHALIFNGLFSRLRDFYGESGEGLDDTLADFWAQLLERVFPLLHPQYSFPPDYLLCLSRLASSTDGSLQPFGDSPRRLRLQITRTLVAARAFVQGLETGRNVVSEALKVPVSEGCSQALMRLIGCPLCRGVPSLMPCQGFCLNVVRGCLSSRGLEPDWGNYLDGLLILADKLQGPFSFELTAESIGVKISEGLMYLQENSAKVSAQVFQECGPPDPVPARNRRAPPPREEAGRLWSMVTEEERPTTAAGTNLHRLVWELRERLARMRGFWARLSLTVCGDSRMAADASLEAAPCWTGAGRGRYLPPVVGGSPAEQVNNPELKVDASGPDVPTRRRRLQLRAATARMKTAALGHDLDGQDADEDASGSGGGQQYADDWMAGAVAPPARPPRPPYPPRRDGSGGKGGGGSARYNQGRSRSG
Nature of the assay: ELISA, GPC2 coated at 2 ug/mL. The procedure: (§2) Human GPC1 (R&D systems, cat no 4519-GP), human GPC2 (R&D systems, cat no 2304-GP), human GPC3 (R&D systems, cat no 2119-GP), human Glypican-5 (R&D systems, cat no 2607-G5) and human Glypican-6 (R&D systems, cat no 2845-GP) were directly coated overnight at 4° C. (2 μg/mL, 1×PBS buffer) on a 384-well HB SpectraPlate (PerkinElmer). The following day the plate was washed 6 times (AquaMax microplate washer, Molecular devices) and blocked with 1×PBS+1% Casein for 2 hours at room temperature. […] After 6 final wash steps the es(HS)TMB substrate (SDT) was added and the reaction stopped by addition of 1 M HCl after 10 minutes. The absorbance of the plate was measured at wavelengths 450 and 620 nm on the Clariostar instrument (BMG LABTECH) and the OD₄₅₀-OD₆₂₀ calculated and plotted for data analysis.
(ELISA stands for enzyme-linked immunosorbent assay.)

For assay [5], the target named is T5, TCRab on primary cyno T cells (cynomolgus).
T5 construct: whole, on cells; also called Primary cy T cells; cyno TCR
Nature of the assay: competition flow cytometry on cyno T cells, competitor T017000623 at EC30 (5E-08 M). On the procedure: T cells (human T cells obtained as described in Example 3 and cyno T cells purchased from LPT laboratory, Germany) were thawed and counted on the day of the assay and diluted to a concentration of 1E+06 cells/mL, before adding 75 μL to the wells of a V-bottom 96-well plate (Greiner, cat no 651180). Cells were washed once with cold FACS buffer, before adding 25 μL Nb and 25 μL competitor to the wells. […] Cells were resuspended and plates were incubated at 4° C. for 90 minutes, after which plates were washed twice in cold FACS buffer. Cells were resuspended in 50 μl 1/1000 diluted Monoclonal ANTI-FLAG® M2 (Sigma Aldrich, cat no F1804) in FACS buffer and incubated at 4° C. for 30 minutes. Plates were washed twice in cold FACS buffer. […] Plates were washed twice in cold FACS buffer. Cells were resuspended in 55 μL 1/1000 diluted Propidium Iodide (Sigma-Aldrich, cat no P4170) in FACS buffer before acquiring data on the MACSQuant X (Miltenyi biotec).
Background: A flow cytometer gives signals particle by particle.

For assay [6], the target named is T6, human GPC3 expressed on CHO Flp-In cells (human, UniProt P51654 25-554).
T6 construct: On cells; Q25-R358, S359-H580; also called hGPC3 CHO; CHO huGPC3
Nature of the assay: flow cytometry on CHO Flp-In human GPC3 cells.

Assay [7] addresses T7, Human GPC1 (R&D systems, cat no 4519-GP) (human, UniProt P35052 24-530, limits assumed).
T7 construct: Bought
T7 sequence (looked up): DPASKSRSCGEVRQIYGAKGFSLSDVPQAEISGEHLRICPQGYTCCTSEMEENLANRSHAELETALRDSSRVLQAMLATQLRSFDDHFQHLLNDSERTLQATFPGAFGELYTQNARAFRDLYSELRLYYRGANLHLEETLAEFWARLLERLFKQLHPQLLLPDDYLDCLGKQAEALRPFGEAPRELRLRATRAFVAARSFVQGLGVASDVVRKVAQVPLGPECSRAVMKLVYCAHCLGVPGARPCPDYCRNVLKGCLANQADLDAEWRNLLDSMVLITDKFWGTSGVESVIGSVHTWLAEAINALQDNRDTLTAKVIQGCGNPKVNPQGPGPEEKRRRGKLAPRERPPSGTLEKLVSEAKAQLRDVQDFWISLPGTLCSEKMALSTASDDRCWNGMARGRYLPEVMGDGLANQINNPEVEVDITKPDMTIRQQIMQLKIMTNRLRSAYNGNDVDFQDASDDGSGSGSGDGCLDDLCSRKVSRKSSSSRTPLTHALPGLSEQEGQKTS
Nature of the assay: ELISA, GPC1 coated at 2 ug/mL. On the procedure:
as §2

B1: A022600424 (other)
chain: DVQLVESGGGVVQPGGSLRLSCVASGYVHKINFYGWYRQAPGKEREKVAHISIGDQTDYADSAKGRFTISRDESKNTVYLQMNSLRPEDTAAYYCRALSRIWPYDYWGQGTLVTVSSGGGGSEVQLVESGGGVVQPGGSLRLSCAASGFTFSSFAMTWVRRPPGKGLEWVATITNKGVTSYADSVKGRFTISRDNAKNTLYLQMNSLRPEDTALYICANARRTGPRAPTDIGSYRGQGTLVTVSSGGGGSGGGSEVQLVESGGGVVQPGGSLRLSCAASGSIFRSVFSSSTMEWYRQAPGKKRELVARIAPGEGTYYGALYADSVKGRFTISRDNAKNTVYLQMNSLRPEDTALYYCASGVAWGQGTLVTVSSGGGGSGGGSEVQLVESGGGVVQPGGSLRLSCAASGFTFRSFGMSWVRQAPGKGPEWVSSISGSGSDTLYADSVKGRFTISRDNSKNTLYLQMNSLRPEDTALYYCTIGGSLSRSSQGTLVTVSSA
notes: Trispecific tetravalent ISVD (VHH) T-cell engager: anti-TCR, two anti-GPC3 (biparatopic), anti-albumin; also called TCE01-5GS-A022600351-9GS-A022600314-9GS-ALB23002-A
Broadly, the EC50 is the concentration giving half of the maximal effect. A low value points to greater potency. By Kd is commonly meant the concentration at which binding is half-saturated. In general, IC50 refers to the midpoint of a concentration-inhibition curve. Read a low IC50 as greater potency. Consider B1, for which the EC50 in assay [1] is 1 to 2 nM; in assay [6], 1.82 nM. In addition, the Kd in assay [2] was under 0.0056 nM; in assay [3] it was under 0.0059 nM. For the same molecule, the binding result in assay [4] and in assay [7] was “no binding” throughout. Besides, in assay [5], the IC50 came out at 250 nM.
